Tests used:
[1] = molecular target: R117A mutant of ferritin from Pyrococcus furiosus (R117A-PfFtn) (Pyrococcus furiosus) (UniProt Q8U2T8)
[2] = molecular target: wild-type ferritin from Pyrococcus furiosus (WT-PfFtn) (Pyrococcus furiosus) (UniProt Q8U2T8); experiment: native gel or EMSA; native gel electrophoresis of apo protein; WT-PfFtn 5 μM monomer, R117A-PfFtn 4.3 or 80 μM monomer

Substance | rate of Fe(II) oxidation (Fe(III) formation at 315 nm after addition of two Fe(II) per subunit), R117A-PfFtn against WT-PfFtn [1] [fold] | stoichiometry N [2]
R117A mutant of ferritin from Pyrococcus furiosus (R117A-PfFtn) (from UniProt Q8U2T8 1-174) (natural protein) | > 100 | –
wild-type ferritin from Pyrococcus furiosus (WT-PfFtn) (from UniProt Q8U2T8 1-174) (natural protein) | – | 24

— publication PMC4646333
